Sequences and labels used below:
B1: DHD13_XAAA chain b (designed binder)
chain: GTEKRLLEEAERAHREQKEIIKKAQELHRRLEEIVRQSGSSEEAKKEAKKILEEIRELSKRSLELLREILYLSQEQKGSLVPR
notes: also called 9′
B2: DHD37_ABXB chain a (designed binder)
chain: DSDEHLKKLKTFLENLRRHLDRLDKHIKQLRDILSENPEDERVKDVIDLSERSVRIVKTVIKIFEDSVRKKE
notes: In Y2H it was fused to Gal4 AD or DBD
B7: DHD37_ABXB chain b (designed binder)
chain: GSDDKELDKLLDTLEKILQTATKIIDDANKLLEKLRRSERKDPKVVETYVELLKRHEKAVKELLEIAKTHAKKVE
notes: Used in Y2H as a co-expressed input or fused to Gal4 AD/DBD; also called 1′; 1′ (b)

Data set [1] addresses B7. Nature of the data set: individual yeast two-hybrid experiments.
For data set [2], the target named is T1, 2′-1′_6-residue_linker.
T1 construct: also called 1′-2′; 1′-2′ with a 6-residue linker
T1 chain: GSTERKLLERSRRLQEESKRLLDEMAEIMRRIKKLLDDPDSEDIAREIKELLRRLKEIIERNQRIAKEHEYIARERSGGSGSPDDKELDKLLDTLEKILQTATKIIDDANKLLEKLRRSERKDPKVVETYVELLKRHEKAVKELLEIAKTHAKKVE
Nature of the data set: thermodynamic model matched to native MS titration data. The text has this: (§1) We studied the cooperativity of the induced dimerizer system in vitro using native mass spectrometry (FIG. 11F). […] We define cooperativity as the ratio of the affinities in the presence and absence of the other monomer, which in our model directly relates to the free energy of opening of the dimerizer (c=e^ΔG^ₒₚₑₙ^{/RT}, see supplementary materials).

The target in data set [3] is T1, 2′-1′_6-residue_linker. Nature of the data set: calculated from the cooperativity factor fitted to native MS data.
From the text: as §1
We experimentally estimated K₁ using native MS experiments.

For data set [4], the target named is T1, 2′-1′_6-residue_linker. Nature of the data set: native mass spectrometry, 10 µM of 1 and 1′-2′; bound from the detection limit of 0.0375 µM.
Data set [5] addresses T2, DHD9 chain b.
T2 construct: also called 9b; 9_b
T2 chain: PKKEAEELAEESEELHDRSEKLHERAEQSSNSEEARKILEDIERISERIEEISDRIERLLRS
Nature of the data set: co-expression in E. coli, one b monomer His-tagged.

In data set [6] the target is T3, DHDSC_9-13-37 chain 13b.
T3 chain: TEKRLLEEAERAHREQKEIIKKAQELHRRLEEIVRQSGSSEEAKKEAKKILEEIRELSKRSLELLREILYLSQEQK
Nature of the data set: co-expression in E. coli, one b monomer His-tagged.

Data set [7] addresses B2. Nature of the data set: individual yeast two-hybrid experiments.
Data set [8] has as its target T4, DHD39 chain b.
T4 construct: In the NOR gate it was fused to the Gal4 DBD; also called 10′; DHD_39 b
T4 chain: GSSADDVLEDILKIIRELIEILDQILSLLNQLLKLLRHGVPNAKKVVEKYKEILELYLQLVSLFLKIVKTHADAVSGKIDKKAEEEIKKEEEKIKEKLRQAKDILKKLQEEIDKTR
Nature of the data set: individual yeast two-hybrid experiments.

Data set [9] addresses B1. Nature of the data set: yeast two-hybrid competition by the co-expressed unfused monomer.
The target of data set [10] is T5, DHD17 chain b.
T5 construct: Co-expressed input protein of the NOT gate; also called 8′
T5 chain: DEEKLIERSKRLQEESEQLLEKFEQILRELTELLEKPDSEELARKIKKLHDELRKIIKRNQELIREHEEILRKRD
Nature of the data set: yeast two-hybrid.

Data set [11] deals with the molecule itself. Nature of the data set: yeast two-hybrid.
For data set [12], the target named is T6, DHD127 chain b.
T6 construct: also called DHD_127 b
T6 chain: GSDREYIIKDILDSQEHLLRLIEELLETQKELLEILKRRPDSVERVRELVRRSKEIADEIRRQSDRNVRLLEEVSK
Nature of the data set: X-ray crystal structure of the heterodimer.
From the text: (§2) The X-ray data sets were collected at the Advanced Light Source at Lawrence Berkeley National Laboratory with beamlines 8.2.1 and 8.2.2. Data sets were indexed and scaled using either XDS³³ or HKL2000³⁴. Initial models were generated by the molecular-replacement method with the program PHASER³⁵ within the Phenix™ software suite³⁶, using the design models as the initial search models. Efforts were made to reduce model bias through refinement with simulated annealing using Phenix.Refine™³⁷, or, if the resolution was sufficient, by using Phenix.Autobuild™³⁸ with rebuild-in-place set to false, simulated annealing and prime-and-switch phasing. Iterative rounds of manual building in COOT³⁹ and refinement in Phenix™ were used to produce the final models. […] RMSDs of bond lengths, angles and dihedrals from ideal geometries were calculated with Phenix™³⁶.

Data set [13] has as its target T7, DHD37_1:234 chain b.
T7 construct: Single-helix monomer of the backbone-permuted 3+1 heterodimer
T7 chain: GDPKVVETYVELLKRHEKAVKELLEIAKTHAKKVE
Nature of the data set: X-ray crystal structure of the heterodimer.
From the text: as §2

The values that follow come from patent US20210355175A1 (University of Washington, published 2021).

Consider B1, for which the binding result in data set [1] is “binds”.

For orientation: Kd means a measure of binding affinity in units of concentration. As for B2, the binding result in [1] is listed as “binds”. Further, the “cooperativity c (ratio of the affinities in the presence and absence of the other monomer)” value in data set [2] came out at 991000. Moreover, the values for the equilibrium dissociation constant (Kd) in data set [3] and in data set [4] were 9.91 mM and 2.65 mM, respectively.

B3: DHDSC_9-13-37 scaffold, chain 9a-13a-37a (designed binder)
chain: PKEEARELIRKQKELIKEQKKLIKEAKQKSDSRDAERIWKRSREINRESKKINKRIKELIKSGSEGSGSEGSGSTKEDILERQRKIIERAQEIHRRQQEILEELERIIRKPGSSEEAMKRMLKLLEESLRLLKELLELSEESAQLLYEQRGSEGSGSEGSGSDSDEHLKKLKTFLENLRRHLDRLDKHIKQLRDILSENPEDERVKDVIDLSERSVRIVKTVIKIFEDSVRKKE
As to B3, the binding result in data set [5] and in [6] was “binds” throughout.

B4: DHD13_XAAA chain a (designed binder)
chain: GTKEDILERQRKIIERAQEIHRRQQEILEELERIIRKPGSSEEAMKRMLKLLEESLRLLKELLELSEESAQLLYEQR
For B4, the binding result in data set [7], in data set [8] and in data set [9] was “binds” in each case.

B5: DHD17 chain a (designed binder)
chain: DRKDLLKRNIKLLDRHLKILDTILKLLEKLSELLKKSSSEEVVKEYKKILDEIRKLLEESKEIHKESKEILERES
notes: In the NOT gate it was fused to both Gal4 AD and DBD; also called DHS 17 a
Turning to B5, the binding result in data set [10] and in data set [11] was “binds” throughout.

B6: DHD127 chain a (designed binder)
chain: GSPRSYLLKELADLSQHLVRLLERLVRESERVVEVLERGEVDEEELKRLEDLHRELEKAVREVRETHREIRERSR
notes: also called DHD_127 a
Turning to B6, the binding result in data set [12] is “binds”.

With B7, the binding result in data set [8] is “binds”.

B8: DHD39 chain a (designed binder)
chain: DHSRKLEEILDRLRKHVKRLLEHLRELLSLVKENPEDKDLVEVLELSLAILRRSLEAVEAFLKSVTKKDPDDEDLRRKADEIRKEVEEIKKSLAEVEKEIYKLK
notes: also called 10; DHD_39 a
In the case of B8, the binding result in data set [8] is reported as “binds”.

B9: DHD37_1:234 chain a (designed binder)
chain: DSDEHLYKLKTFLENLRRHLDRLDKHIKQLRDILSENPEDERVKDAIDLSERSVRIVKTVIKIFEDSVRKKEKRPIDKRDDKELDKLLDTLEKILQTATKIIDDANKLLEYLRR
notes: Three-helix monomer of the backbone-permuted 3+1 heterodimer
Consider B9, for which the binding result in data set [13] was “binds”.
